This note sets out measurements from patent US6905854B2, “Mutated penicillin expandase and process for preparing 7-ADCA using the same” (Synmax Biochemical Co., Ltd., priority 2002, dated 2005).

Format in all cases: biochemical
Series [1] can be described thus: Relative activity of purified combined mutants compared to wild type DAOCS. Particulars: 1 mM penicillin G; activity of wild-type DAOCS as 100%. Here is the method: (§1) For penicillin G, 20 μl of cell extracts was added into a standard 200 μl assay reaction containing 50 mM Mops/pH 7.5, 4 mM ascorbate, 1 mM FeSO4, 4 mM α-ketoglutarate and 7 mM penicillin G, and incubated at 30° C. for 20 minutes. The reaction was stopped by addition of 200 μl of ethanol, followed by a centrifugation at 15,000×g for 5 minutes. The concentration of cephalosporin G in supernatant was analyzed by HPLC with 40 μl injection. The mobile phase was 25 mM potassium phosphate/pH 6.5 with 19% acetonitrile at a flow rate of 1 ml/min. The retention time for cephalosporin G was 8.5 minutes and 12.5 minutes for penicillin G with detection at 215 nm, and the product at 8.5 minutes in DAOCS reaction was confirmed by ESI-LC/MS (positive): [M+H]^+=333. […] The different combinations of the mutated amino acids mentioned above were also constructed by site-directed mutagenesis.
(§2) The standard penicillin G assay was followed for kinetic assay, but 20 μg of purified DAOCS was used and the concentration of α-ketoglutarate was reduced to 1 mM. Kinetic parameters were obtained from triplicate experiments by Hanes-Woolf Plot. For assays using penicillin N as a main substrate, a total volume of 240 μl reaction containing 50 mM Hepes/pH 7.5, 0.4 mM ascorbate, 0.1 mM FeSO4, 0.1 mM α-ketoglutarate, 0.1 mM penicillin N and 0.5 μg of purified DAOCS was incubated at 30° C. for 10 minutes, then the same volume of 10 mM EDTA/pH 7.5 was added, and the mixture was subjected to ultrafiltration with UF 0.5 device (NMWL 5000, Millipore). The filtrate was analyzed by HPLC using 25 mM potassium phosphate/pH 6.5 as a mobile phase. The retention time of DAOC and penicillin N was 12 minutes and 13.5 minutes, respectively The results of kinetic parameters are shown in Table 1, wherein the definition and calculation of the parameters are described in Lehninger et al. Principles of Biochemistry, 2nd Ed. Worth Publishers, New York (1993) which is incorporated herein for reference.
The relative activities of the mutants are determined according to Chin H. S. et al supra with the activity of wild-type DAOCS as 100% and shown in Table 2. The assay was performed with 1 mM penicillin G, and the other conditions were the same as standard assay.

Series [2] in a line: Kinetic assay of purified DAOCS with penicillin N as main substrate. Particulars: for penicillin N, 0.5 μg purified DAOCS, 30° C., 10 minutes; for Km: triplicate, Hanes-Woolf Plot. How it is done: (§3) The cell extract (2 ml) of a candidate mutant was applied onto a HiTrap Q column (5 ml) pre-equilibrated with buffer B (50 mM Mops/pH 7.5, 1 mM DTT, 0.4 mM pefabloc SC, and 0.5 μg/ml leupeptin). Then, the column was washed with 20 ml of buffer B, followed by a further wash with 25 ml of buffer B containing 120 mM NaCl, and DAOCS was eluted off with 20 ml of buffer B containing 150 mM NaCl. The DAOCS containing fractions were pooled (10 ml), concentrated by UF 15 device (NMWL 5K; Millipore), and loaded onto a Hiload Superdex 75 (16/60) column pre-equilibrated with buffer B at a flow rate of 1 ml/min.
as §2

Series [3] in a line: Kinetic assay of purified DAOCS with penicillin G (standard penicillin G assay, HPLC of cephalosporin G). As to conditions: for penicillin G, 20 μg purified DAOCS, 1 mM α-ketoglutarate, 30° C.; for Km: triplicate, Hanes-Woolf Plot. How it is done: as §1, §3, §2

B1: YS88: combined DAOCS mutant, mutated sites 79E, 275I, 281Y (protein, UniProt P18548 1-311, looked up, variant G79E V275I C281Y)
Deacetoxycephalosporin C …: MDTTVPTFSLAELQQGLHQDEFRRCLRDKGLFYLTDCGLTDTELKSAKDLVIDFFEHGSEAEKRAVTSPVPTMRRGFTELESESTAQITNTGSYSDYSMCYSMGTADNLFPSGDFERIWTQYFDRQYTASRAVAREVLRATGTEPDGGVEAFLDCEPLLRFRYFPQVPEHRSAEEQPLRMAPHYDLSMVTLIQQTPCANGFVSLQAEVGGAFTDLPYRPDAVLVFCGAIATLVTGGQVKAPRHHVAAPRRDQIAGSSRTSSVFFLRPNADFTFSIPLAREYGFDVSLDGETATFQDWIGGNYVNIRRTSKA
For the molecule B1, the “Relative Activities” value in series [1] was 430%.

B2: SC59: DNA-shuffled combined DAOCS mutant with C155Y, Y184H, V275I and C281Y (protein, UniProt P18548 1-311, looked up, variant C155Y Y184H V275I C281Y)
Deacetoxycephalosporin C …: MDTTVPTFSLAELQQGLHQDEFRRCLRDKGLFYLTDCGLTDTELKSAKDLVIDFFEHGSEAEKRAVTSPVPTMRRGFTGLESESTAQITNTGSYSDYSMCYSMGTADNLFPSGDFERIWTQYFDRQYTASRAVAREVLRATGTEPDGGVEAFLDYEPLLRFRYFPQVPEHRSAEEQPLRMAPHHDLSMVTLIQQTPCANGFVSLQAEVGGAFTDLPYRPDAVLVFCGAIATLVTGGQVKAPRHHVAAPRRDQIAGSSRTSSVFFLRPNADFTFSIPLAREYGFDVSLDGETATFQDWIGGNYVNIRRTSKA
As usually defined, the Km is the substrate concentration at which the rate is half of its maximum. For the molecule B2, in series [2], the kcat is recorded as 0.048 ± 0.001 S^−1 and the Michaelis constant (Km) amounted to 92 ± 0.5 µM. In series [3], the kcat was determined as 0.1398 ± 0.0015 S^−1 and the Michaelis constant (Km) was 190 ± 2 µM.

B3: YS74: combined DAOCS mutant, mutated sites 275I, 304K, 305L (protein, UniProt P18548 1-311, looked up, variant V275I N304K I305L)
Deacetoxycephalosporin C …: MDTTVPTFSLAELQQGLHQDEFRRCLRDKGLFYLTDCGLTDTELKSAKDLVIDFFEHGSEAEKRAVTSPVPTMRRGFTGLESESTAQITNTGSYSDYSMCYSMGTADNLFPSGDFERIWTQYFDRQYTASRAVAREVLRATGTEPDGGVEAFLDCEPLLRFRYFPQVPEHRSAEEQPLRMAPHYDLSMVTLIQQTPCANGFVSLQAEVGGAFTDLPYRPDAVLVFCGAIATLVTGGQVKAPRHHVAAPRRDQIAGSSRTSSVFFLRPNADFTFSIPLARECGFDVSLDGETATFQDWIGGNYVKLRRTSKA
On to B3, for which the “Relative Activities” value in series [1] is reported as 300%.

B4: YS71: mutated penicillin expandase (DAOCS) with substitution A106T (protein, UniProt P18548 1-311, looked up, variant A106T)
Deacetoxycephalosporin C …: MDTTVPTFSLAELQQGLHQDEFRRCLRDKGLFYLTDCGLTDTELKSAKDLVIDFFEHGSEAEKRAVTSPVPTMRRGFTGLESESTAQITNTGSYSDYSMCYSMGTTDNLFPSGDFERIWTQYFDRQYTASRAVAREVLRATGTEPDGGVEAFLDCEPLLRFRYFPQVPEHRSAEEQPLRMAPHYDLSMVTLIQQTPCANGFVSLQAEVGGAFTDLPYRPDAVLVFCGAIATLVTGGQVKAPRHHVAAPRRDQIAGSSRTSSVFFLRPNADFTFSVPLARECGFDVSLDGETATFQDWIGGNYVNIRRTSKA
For B4, in series [2], the kcat is on record as 0.277 ± 0.014 S^−1 and the Km came to 13 ± 2 µM. For the same molecule, in series [3], the kcat is recorded as 0.0453 ± 0.0009 S^−1 and the Km stood at 1770 ± 150 µM.

B5: EC12: mutated penicillin expandase (DAOCS) with substitution L277Q (protein, UniProt P18548 1-311, looked up, variant L277Q)
Deacetoxycephalosporin C …: MDTTVPTFSLAELQQGLHQDEFRRCLRDKGLFYLTDCGLTDTELKSAKDLVIDFFEHGSEAEKRAVTSPVPTMRRGFTGLESESTAQITNTGSYSDYSMCYSMGTADNLFPSGDFERIWTQYFDRQYTASRAVAREVLRATGTEPDGGVEAFLDCEPLLRFRYFPQVPEHRSAEEQPLRMAPHYDLSMVTLIQQTPCANGFVSLQAEVGGAFTDLPYRPDAVLVFCGAIATLVTGGQVKAPRHHVAAPRRDQIAGSSRTSSVFFLRPNADFTFSVPQARECGFDVSLDGETATFQDWIGGNYVNIRRTSKA
In the case of B5, the kcat is 0.297 ± 0.020 S^−1 in series [2] and 0.1036 ± 0.0012 S^−1 in series [3]. The values for the Km in series [2] and in series [3] were 11 ± 1.5 µM and 1020 ± 20 µM, respectively.

B6: YS69: mutated penicillin expandase (DAOCS) with substitution M188I (protein, UniProt P18548 1-311, looked up, variant M188I)
Deacetoxycephalosporin C …: MDTTVPTFSLAELQQGLHQDEFRRCLRDKGLFYLTDCGLTDTELKSAKDLVIDFFEHGSEAEKRAVTSPVPTMRRGFTGLESESTAQITNTGSYSDYSMCYSMGTADNLFPSGDFERIWTQYFDRQYTASRAVAREVLRATGTEPDGGVEAFLDCEPLLRFRYFPQVPEHRSAEEQPLRMAPHYDLSIVTLIQQTPCANGFVSLQAEVGGAFTDLPYRPDAVLVFCGAIATLVTGGQVKAPRHHVAAPRRDQIAGSSRTSSVFFLRPNADFTFSVPLARECGFDVSLDGETATFQDWIGGNYVNIRRTSKA
As for B6, in series [2], the kcat is 0.277 ± 0.004 S^−1 and the Michaelis constant (Km) came out at 11 ± 1 µM. For the same molecule, in series [3], the kcat worked out at 0.0507 ± 0.0006 S^−1 and the Km came out at 1960 ± 90 µM.

B7: YH2: mutated penicillin expandase (DAOCS) with substitution H244R (protein, UniProt P18548 1-311, looked up, variant H244R)
Deacetoxycephalosporin C …: MDTTVPTFSLAELQQGLHQDEFRRCLRDKGLFYLTDCGLTDTELKSAKDLVIDFFEHGSEAEKRAVTSPVPTMRRGFTGLESESTAQITNTGSYSDYSMCYSMGTADNLFPSGDFERIWTQYFDRQYTASRAVAREVLRATGTEPDGGVEAFLDCEPLLRFRYFPQVPEHRSAEEQPLRMAPHYDLSMVTLIQQTPCANGFVSLQAEVGGAFTDLPYRPDAVLVFCGAIATLVTGGQVKAPRHRVAAPRRDQIAGSSRTSSVFFLRPNADFTFSVPLARECGFDVSLDGETATFQDWIGGNYVNIRRTSKA
For B7, in series [2], the kcat amounted to 0.236 ± 0.005 S^−1 and the Km came out at 8 ± 1 µM. In series [3], the kcat is 0.0672 ± 0.0008 S^−1 and the Km was determined as 2450 ± 40 µM.

B8: YS100: combined DAOCS mutant, mutated sites 79E, 275I, 305L (protein, UniProt P18548 1-311, looked up, variant G79E V275I I305L)
Deacetoxycephalosporin C …: MDTTVPTFSLAELQQGLHQDEFRRCLRDKGLFYLTDCGLTDTELKSAKDLVIDFFEHGSEAEKRAVTSPVPTMRRGFTELESESTAQITNTGSYSDYSMCYSMGTADNLFPSGDFERIWTQYFDRQYTASRAVAREVLRATGTEPDGGVEAFLDCEPLLRFRYFPQVPEHRSAEEQPLRMAPHYDLSMVTLIQQTPCANGFVSLQAEVGGAFTDLPYRPDAVLVFCGAIATLVTGGQVKAPRHHVAAPRRDQIAGSSRTSSVFFLRPNADFTFSIPLARECGFDVSLDGETATFQDWIGGNYVNLRRTSKA
As for B8, the “Relative Activities” value in series [1] came to 470%.

B9: YS72: mutated penicillin expandase (DAOCS) with substitution C155Y (protein, UniProt P18548 1-311, looked up, variant C155Y)
Deacetoxycephalosporin C …: MDTTVPTFSLAELQQGLHQDEFRRCLRDKGLFYLTDCGLTDTELKSAKDLVIDFFEHGSEAEKRAVTSPVPTMRRGFTGLESESTAQITNTGSYSDYSMCYSMGTADNLFPSGDFERIWTQYFDRQYTASRAVAREVLRATGTEPDGGVEAFLDYEPLLRFRYFPQVPEHRSAEEQPLRMAPHYDLSMVTLIQQTPCANGFVSLQAEVGGAFTDLPYRPDAVLVFCGAIATLVTGGQVKAPRHHVAAPRRDQIAGSSRTSSVFFLRPNADFTFSVPLARECGFDVSLDGETATFQDWIGGNYVNIRRTSKA
Regarding B9, in series [2], the kcat was determined as 0.235 ± 0.008 S^−1 and the Km amounted to 16 ± 0.5 µM. In addition, in series [3], the kcat was 0.0476 ± 0.0012 S^−1 and the Michaelis constant (Km) stood at 1760 ± 50 µM.

B10: SC39: combined DAOCS mutant, mutated sites 73T, 281Y (protein, UniProt P18548 1-311, looked up, variant M73T C281Y)
Deacetoxycephalosporin C …: MDTTVPTFSLAELQQGLHQDEFRRCLRDKGLFYLTDCGLTDTELKSAKDLVIDFFEHGSEAEKRAVTSPVPTTRRGFTGLESESTAQITNTGSYSDYSMCYSMGTADNLFPSGDFERIWTQYFDRQYTASRAVAREVLRATGTEPDGGVEAFLDCEPLLRFRYFPQVPEHRSAEEQPLRMAPHYDLSMVTLIQQTPCANGFVSLQAEVGGAFTDLPYRPDAVLVFCGAIATLVTGGQVKAPRHHVAAPRRDQIAGSSRTSSVFFLRPNADFTFSVPLAREYGFDVSLDGETATFQDWIGGNYVNIRRTSKA
As for B10, in series [1], the “Relative Activities” value came to 610%.
